Test results from PMC5095800, “A standardized production pipeline for high profile targets from Mycobacterium tuberculosis” (Proteomics. Clinical Applications, 2016).

Target: the molecule itself
Assay: SEC

B1: Ferritin BfrB (natural protein)
chain: MTEYEGPKTKFHALMQEQIHNEFTAAQQYVAIAVYFDSEDLPQLAKHFYSQAVEERNHAMMLVQHLLDRDLRVEIPGVDTVRNQFDRPREALALALDQERTVTDQVGRLTAVARDEGDFLGEQFMQWFLQEQIEEVALMATLVRVADRAGANLFELENFVAREVDVAPAASGAPHAAGGRL
notes: also called Rv3841; copies: 24
- stoichiometry N: 24
